The assay has as its target afucosylated IgG-specific nanobody X0. Briefly: SPR. Particulars: parent: est. 0; read off a plot.
Consider afucosylated IgG1 Fc E269A, for which the other: log2 fold change in KD was 0.95 log2.
On to afucosylated IgG1 Fc I332A, for which the other: log2 fold change in KD stood at 0.08 log2.
With afucosylated IgG1 Fc H268A the figure was -1.5 log2.
With afucosylated IgG1 Fc P329A the figure was 0.03 log2; with afucosylated IgG1 Fc L328A, -0.15 log2.

Source of the values: PMC10195009.
